Assay results reported in patent publication US20220177564A1 (Ablynx, published 2022).
Read-outs that look alike come from different tables or passages of the source. Values belong to the binder of their own block, whether it stands above or below them.

What was measured:
[1] = target: T1, human IL-13 (human, UniProt P35225 35-146, limits assumed); assay: cell-based or functional assay
[2] = target: T1, human IL-13; assay: AlphaScreen; hIL-13 to hIL-13Rα1-hFc
[3] = target: T1, human IL-13; assay: AlphaScreen; hIL-13:hIL-13Rα1:hIL4Rα ternary complex
[4] = target: T2, cyno IL-13 (cynomolgus monkey, UniProt Q0PW92 21-132); assay: cell-based or functional assay
[5] = target: T1, human IL-13; assay: cell-based or functional assay; remark: listed apart in the source
[6] = target: T2, cyno IL-13; assay: cell-based or functional assay; remark: listed apart in the source
[7] = target: T1, human IL-13; assay: SPR, hIL-13
[8] = target: T1, human IL-13; assay: cell-based or functional assay; remark: listed apart in the source
[9] = target: T1, human IL-13; assay: AlphaScreen, purified ISVD; hIL-13 to hIL-13Rα1-hFc
[10] = target: T3, hIL13-Fc (human, UniProt P35225 25-146); assay: SPR (ProteOn XPR36), periplasmic extract over immobilised Fc fusion
T3 construct: not shown: Fc part and any linker not described

[11] = target: T4, cyno IL13-Fc (cynomolgus monkey, UniProt Q0PW92 11-132); assay: as above
T4 construct: not shown: Fc part and any linker not described

[12] = target: T1, human IL-13; assay: AlphaScreen, purified ISVD; hIL-13:hIL-13Rα1:hIL4Rα ternary complex
[13] = target: T1, human IL-13; assay: SPR, hIL-13 from Peprotech (cat nr 200-13)
[14] = target: T1, human IL-13; assay: cell-based or functional assay; remark: listed apart in the source
[15] = target: T1, human IL-13; assay: SPR, hIL-13 from Peprotech (cat nr 200-13); remark: listed apart in the source
[16] = target: T5, human TSLP (human, UniProt Q969D9 29-159); assay: SPR, hTSLP
T5 construct: also called hTSLP; hTSP

[17] = target: T6, cyno TSLP (cynomolgus monkey, UniProt A0A7N9CAT7 29-159); assay: SPR, cyno TSLP
T6 construct: also called cynomolgus monkey TSLP

[18] = target: T7, hTSLP-Fc (human, UniProt Q969D9 29-159); assay: SPR, hTSLP-hFc
T7 construct: also called hTSLP-hFc; hTLSP-Fc; not shown: human Fc part and any linker not described

[19] = target: T8, cyno TSLP-Fc (cynomolgus monkey, UniProt A0A7N9CAT7 29-159); assay: SPR, cyno TSLP-hFc
T8 construct: also called cyno TSLP-hFc; not shown: human Fc part and any linker not described

[20] = target: T8, cyno TSLP-Fc; assay: SPR; the KD column is on cyno TSLP-hFc
[21] = target: T5, human TSLP; assay: SPR, hTSLP; remark: listed apart in the source
[22] = target: T6, cyno TSLP; assay: SPR, cyno TSLP; remark: listed apart in the source
[23] = target: T5, human TSLP; assay: AlphaScreen; hTSLP:hTSLPR:hIL7Rα ternary complex
[24] = target: T7, hTSLP-Fc; assay: cell-based or functional assay
[25] = target: T8, cyno TSLP-Fc; assay: cell-based or functional assay
[26] = target: T5, human TSLP; assay: AlphaScreen, purified ISVD; hTSLP to hTSLPR
[27] = target: T7, hTSLP-Fc; assay: SPR (BIAcore T100), Fc fusion captured by anti-huIgG
[28] = target: T8, cyno TSLP-Fc; assay: as above
[29] = target: T5, human TSLP; assay: AlphaScreen, purified ISVD; hTSLP:hTSLPR:hIL7Rα ternary complex
[30] = target: T7, hTSLP-Fc; assay: SPR (ProteOn XPR36), periplasmic extract over immobilised Fc fusion
[31] = target: T8, cyno TSLP-Fc; assay: as above

- IC50, TF1 proliferation assay, 200 pM hIL13 [1]: 9.4e-08 M
- % inhibition [2]: 84%
- IC50 [2]: 0.27 nM
- % inhibition [3]: 98%
- IC50 [3]: 4.8 nM
B1: F010700014 (VHH)
chain: EVQLVESGGGLVQAGGSLRLSCAASGRTFSSYRMGWFRQAPGKEREFVAALSGDGYSTYTANSVNSRFTISRDNAKNTVYLQMNSLKPEDTAIYYCAAKLQYVSGWSYDYPYWGQGTLVTVSSGGGGSGGGGSGGGGSGGGGSGGGGSGGGGSGGGGSEVQLVESGGGLVQAGGSLRLSCAASGRTFSSYRMGWFRQAPGKEREFVAALSGDGYSTYTANSVNSRFTISRDNAKNTVYLQMNSLKPEDTAIYYCAAKLQYVSGWSYDYPYWGQGTLVTVSS
notes: Bivalent anti-IL-13 construct of two VHHs, Pichia pastoris, FLAG3-HIS6-tagged; also called F0107004B02-35GS-F0107004B02; not shown: FLAG3-HIS6 tag

- IC50, TF1 proliferation assay, 200 pM hIL13 [1]: 2e-11 M
- IC50, TF1 proliferation assay, 200 pM cyno IL13 [4]: 2.5e-10 M
- IC50, IL-13 induced A549 eotaxin release assay [5]: 0.21 nM
- IC50, IL-13 induced A549 eotaxin release assay [6]: 0.15 nM
- % inhibition [2]: 99%
- IC50 [2]: 0.31 nM
- % inhibition [3]: 100%
- IC50 [3]: 3 nM
B2: F010700029 (bispecific antibody)
chain: EVQLVESGGGLVQAGGSLRLSCAASGRTFSSYRMGWFRQAPGKEREFVAALSGDGYSTYTANSVNSRFTISRDNAKNTVYLQMNSLKPEDTAIYYCAAKLQYVSGWSYDYPYWGQGTLVTVSSGGGGSGGGGSGGGGSGGGGSGGGGSGGGGSGGGGSEVQLVESGGGLVQPGGSLRLSCAASGFTFNNYAMKWVRQAPGKGLEWVSSITTGGGSTDYADSVKGRFTISRDNRKNTLYLQMNSLKPEDTAVYYCANVPFGYYSEHFSGLSFDYRGQGTLVTVSS
notes: Biparatopic anti-IL-13 construct of two VHHs, Pichia pastoris, FLAG3-HIS6-tagged; also called F0107004B02-35GS-F0107004B06; not shown: FLAG3-HIS6 tag

- Kd [7]: 26 nM
- koff [7]: 0.0033 s⁻¹
- kon [7]: 250000 M⁻¹ s⁻¹
- IC50, IL-13-induced TF-1 proliferation assay [8]: 10000 nM
- IC50 [9]: 61 nM
- koff [10]: 0.0063 s⁻¹
- koff [11]: 0.0089 s⁻¹
- IC50 [12]: 6.7 nM
B3: F0107004B06 (VHH)
VHH: EVQLVESGGGLVQPGGSLRLSCAASGFTFNNYAMKWVRQAPGKGLEWVSSITTGGGSTDYADSVKGRFTISRDNRKNTLYLQMNSLKPEDTAVYYCANVPFGYYSEHFSGLSFDYRGQGTLVTVSS
notes: Wild-type anti-IL-13 ISVD; also called F010704B06; F107004B06; not shown: c-myc, His6 tag of the purified protein

- Kd [13]: 27 nM
- koff [13]: 0.0075 s⁻¹
- kon [13]: 280000 M⁻¹ s⁻¹
B4: F027100183 (VHH)
VHH: EVQLVESGGGVVQPGGSLRLSCAASGFTFNNYAMKWVRQAPGKGLEWVSSITTGGGSTDYADSVKGRFTISRDNSKNTLYLQMNSLRPEDTALYYCANVPFGYYSEHFSGLSFDYRGQGTLVTVSS
notes: E. coli, IMAC; also called F0107004B06 (L11V, R74S, K83R, V89L)

- IC50, TF1 proliferation assay, 200 pM hIL13 [1]: 1.2e-08 M
- % inhibition [2]: 99%
- IC50 [2]: 0.13 nM
- % inhibition [3]: 100%
- IC50 [3]: 3.4 nM
B5: F010700003 (bispecific antibody)
chain: EVQLVESGGGLVQPGGSLRLSCAASGFTFNNYAMKWVRQAPGKGLEWVSSITTGGGSTDYADSVKGRFTISRDNRKNTLYLQMNSLKPEDTAVYYCANVPFGYYSEHFSGLSFDYRGQGTLVTVSSGGGGSGGGGSGGGGSGGGGSGGGGSGGGGSGGGGSEVQLVESGGGLVQAGGSLRLSCAASGRTFSSYRMGWFRQAPGKEREFVAALSGDGYSTYTANSVNSRFTISRDNAKNTVYLQMNSLKPEDTAIYYCAAKLQYVSGWSYDYPYWGQGTLVTVSS
notes: Biparatopic anti-IL-13 construct of two VHHs, expressed in Pichia pastoris as FLAG3-HIS6-tagged protein; also called F0107004B06-35GS-F0107004B02; not shown: FLAG3-HIS6 tag

- IC50, TF1 proliferation assay, 200 pM hIL13 [1]: 1e-07 M
- % inhibition [3]: 99%
- IC50 [3]: 0.66 nM
B6: F010700031 (VHH)
chain: EVQLVESGGGLVQPGGSLRLSCAASGFTFNNYAMKWVRQAPGKGLEWVSSITTGGGSTDYADSVKGRFTISRDNRKNTLYLQMNSLKPEDTAVYYCANVPFGYYSEHFSGLSFDYRGQGTLVTVSSGGGGSGGGGSGGGGSGGGGSGGGGSGGGGSGGGGSEVQLVESGGGLVQPGGSLRLSCAASGFTFNNYAMKWVRQAPGKGLEWVSSITTGGGSTDYADSVKGRFTISRDNRKNTLYLQMNSLKPEDTAVYYCANVPFGYYSEHFSGLSFDYRGQGTLVTVSS
notes: Bivalent anti-IL-13 construct of two VHHs, Pichia pastoris, FLAG3-HIS6-tagged; also called F0107004B06-35GS-F0107004B06; not shown: FLAG3-HIS6 tag

- IC50 (nM) Eotaxin release assay [14]: 47 nM
- Kd [15]: 34 nM
- koff [15]: 0.0012 s⁻¹
- kon [15]: 35000 M⁻¹ s⁻¹
B7: F027100019 (VHH)
VHH: DVQLVESGGGVVQPGGSLRLSCAASGRTFSSYRMGWFRQAPGKEREFVAALSGDGYSTYTANSVKGRFTISRDNSKNTVYLQMNSLRPEDTALYYCAAKLQYVSGWSYDYPYWGQGTLVTVSS
notes: Expressed in E. coli, purified by IMAC; also called F0107004B02 (E1D, L11V, A14P, N64K, S65G, A74S, K83R, I89L)

- koff [16]: 7.7e-05 s⁻¹
- koff [17]: 0.0018 s⁻¹
- Kd [18]: 0.038 nM
- Kd [19]: 3.3 nM
- fold lower affinity against parental ISVD F0107529F10 [20]: 2 fold
B8: F010704099 (VHH)
VHH: EVQLVESGGGLVQPGGSLRLSCAASGFTFADYDYDIGWFRQAPGKEREGVSCISNRDGSTYYADSVKGRFTISRDNSKNTVYLQMNSLRPEDTAVYYCAVEIHCDDYGVENFDFDPWGQGTLVTVSS
notes: E. coli, IMAC; also called F0107529F10 (A14P, T60A, S71R, A74S, S79Y, K83R)

- koff [21]: 6.2e-05 s⁻¹
- koff [22]: 0.0016 s⁻¹
- IC50 [23]: 0.27 nM
B9: F010704076 (VHH)
VHH: EVQLVESGGGLVQPGGSLRLSCAASGSGFGVNILYWYRQAAGIERELIASITSGGITNYVDSVKGRFTISRDNSENTMYLQMNSLRAEDTGVYYCASRNIFDGTTEWGQGTLVTVSS
notes: E. coli, IMAC; also called F0107501A02 (A14P, E16G, A74S, K83R)

- koff [21]: 5.4e-05 s⁻¹
- koff [22]: 0.0015 s⁻¹
- IC50, TSLP-induced BaF3 cell proliferation assay [24]: > 1000 nM
- IC50, TSLP-induced BaF3 cell proliferation assay [25]: > 1000 nM
- IC50 [26]: 0.3 nM
- IC50 [23]: 0.28 nM
- Kd [27]: 0.51 nM
- koff [27]: 5.7e-05 s⁻¹
- kon [27]: 110000 M⁻¹ s⁻¹
- Kd [28]: 25 nM
- koff [28]: 0.0018 s⁻¹
- kon [28]: 73000 M⁻¹ s⁻¹
- IC50 [29]: 0.35 nM
- koff [30]: 3.6e-05 s⁻¹
- koff [31]: 0.00066 s⁻¹
B10: F0107501A02 (VHH)
VHH: EVQLVESGGGLVQAGESLRLSCAASGSGFGVNILYWYRQAAGIERELIASITSGGITNYVDSVKGRFTISRDNAENTMYLQMNSLKAEDTGVYYCASRNIFDGTTEWGQGTLVTVSS
notes: Wild-type anti-TSLP ISVD; not shown: c-myc, His6 tag of the purified protein

- koff [21]: 0.00012 s⁻¹
- koff [22]: 0.0043 s⁻¹
B11: F027400160 (VHH)
VHH: EVQLVESGGGVVQPGGSLRLSCAASGSGFGVNILYWYRQAAGIERELIASITSGGITNYVDSVKGRFTISRDNSENTMYLQMNSLRAEDTGLYYCASRNIFDGTTEWGQGTLVTVSS
notes: E. coli, IMAC; also called F0107501A02 (L11V, A14P, E16G, A74S, K83R, V89L)
